We go through six molecules from US20260274955A1 (JANUX THERAPEUTICS, published 2026).

Experiment [1] has as its target T1, anti-CD28 scFv wt Vh-linker-Vl (biotinylated (site not stated)).
T1 construct: captured on neutravidin plates
Kind of experiment: phage ELISA on captured scFv, CD28 as competitor. (In an ELISA, binding on a coated surface is turned into a signal by an enzyme label.)

Experiment [2] addresses T2, anti-CD28 scFv (SEQ ID NO: 35).
T2 construct: also called anti-CD28 scFv wt Vh-linker-Vl; human anti-CD28 scFv
The experiment is described as follows: BLI (Octet). (In general: BLI is a label-free optical method that tracks binding on a fibre tip over time.)

Experiment [3] deals with T3, Ab-1.
T3 construct: also called anti-CD28 scFv harbored in Ab-1
Kind of experiment: BLI (Octet), 200 nM peptide, 100 nM Ab-1.

For experiment [4], the target named is T3, Ab-1. The experiment is described as follows: binding ELISA, peptide captured, Ab-1 titrated.
For experiment [5], the target named is T3, Ab-1. The experiment is described as follows: competition ELISA, peptide titrated vs 1 nM Ab-1 binding plate-bound CD28.
Experiment [6] concerns the target T3, Ab-1. The experiment is described as follows: BLI (Octet), peptide on sensor, Ab-1 titrated, 1:1 model.
Another experiment has as its target T4, Peptide-73 (cysteine pairing not given here; also: biotinylated, site not given here).
T4 construct: optimization library of Peptide-39
T4 peptide: YCEGHAPEYIAKCL
The experiment is described as follows: BLI, peptide on sensor, Fab in solution, 1:1 model.

The next experiment concerns the target T5, Peptide-78 (cysteine pairing not given here; also: biotinylated, site not given here).
T5 construct: optimization library of Peptide-39
T5 peptide: YCEGHLPEYREKCL
Kind of experiment: BLI, peptide on sensor, Fab in solution, 1:1 model.

A further experiment deals with T6, Peptide-79 (cysteine pairing not given here; also: biotinylated, site not given here).
T6 construct: optimization library of Peptide-39
T6 peptide: YCEGHLPEYLAKCL
Kind of experiment: BLI, peptide on sensor, Fab in solution, 1:1 model.

Another experiment addresses T7, Peptide-72 (cysteine pairing not given here; also: biotinylated, site not given here).
T7 construct: optimization library of Peptide-39
T7 peptide: YCEGHLPEYIEKCL
The experiment is described as follows: BLI, peptide on sensor, Fab in solution, 1:1 model.

The next experiment deals with T8, Peptide-84 (cysteine pairing not given here; also: biotinylated, site not given here).
T8 construct: optimization library of Peptide-39
T8 peptide: YCEGHLPEYRNKCL
Kind of experiment: BLI, peptide on sensor, Fab in solution, 1:1 model.

In the next experiment the target is T9, Peptide-39 (cysteine pairing not given here; also: biotinylated, site not given here).
T9 construct: synthetic peptide
T9 peptide: YCAGHAWQYINKCL
The experiment is described as follows: BLI, peptide on sensor, Fab in solution, 1:1 model.

The next experiment has as its target T10, Peptide-86 (cysteine pairing not given here; also: biotinylated, site not given here).
T10 construct: optimization library of Peptide-39
T10 peptide: YCEGHLPEYIQKCL
The experiment is described as follows: BLI, peptide on sensor, Fab in solution, 1:1 model.

The target of experiment [7] is T3, Ab-1. The experiment is described as follows: BLI (Octet), 200 nM peptide, 100 nM Ab-1. This is another data set of the same source.
Experiment [8] addresses T3, Ab-1. Kind of experiment: competition ELISA, peptide titrated vs 1 nM Ab-1 binding plate-bound CD28. The source holds these as a separate data set.
Experiment [9] deals with T3, Ab-1. Kind of experiment: binding ELISA, peptide captured, Ab-1 titrated. The source holds these as a separate data set.
Experiment [10] has as its target T11, anti-CD28 Fab (SEQ ID NOs: 202, 203).
T11 construct: biotinylated when captured in the phage ELISAs
Kind of experiment: binding ELISA, peptide captured, anti-CD28 Fab titrated.

Experiment [11] has as its target T3, Ab-1. The experiment is described as follows: BLI (Octet), peptide on sensor, Ab-1 titrated, 1:1 model. This is another data set of the same source.
Experiment [12] addresses T3, Ab-1. The experiment is described as follows: BLI (Octet), 20 nM peptide, 100 nM Ab-1.
Experiment [13] has as its target T12, anti-CD28 scFv (SEQ ID NO: 35).
T12 construct: also called anti-CD28 scFv wt Vh-linker-Vl
Kind of experiment: phage binding ELISA, scFv on plate, CD28 as competitor.

Where two headings read alike, the source gives them in different places. No end group written: not given here.

In the case of IDWCPTAGWTYCWF [Phage-1513], in [1], the “CD28 scFv signal in presence of CD28” value was found to be 0.075.

As for GYCHYWGDMVMWCG (cysteine pairing not given here; also: biotinylated, site not given here, biotinylated for capture in BLI) [Peptide-118], the binding result in experiment [2] was “binds”.

As to IDWCPRYLWDECYN (cysteine pairing not given here; also: biotinylated, site not given here) [Peptide-23], the “Octet signal (200 nM peptide)” value in the experiment with Ab-1 [3] amounted to 1.52. The concentration for a half-maximal effect (EC50) with Ab-1 [4] is 2.1 nM. This molecule yielded a half-maximal inhibitory concentration (IC50) in the experiment with Ab-1 [5] of 140 nM. In the experiment with Ab-1 [6], this molecule yielded a dissociation constant Kd of 16 nM and a t1/2 of 546 s.

B1: anti-CD28 Fab (Fab, V domains shown)
VH: QVQLVQSGAEVKKPGASVKVSCKASGYTFTSYYIHWVRQAPGQGLEWIGSIYPGNVNTNYNEKFKDRATLTVDTSISTAYMELSRLRSDDTAVYFCTRSHYGLDWNFDVWGQGTTVTVSS
VL: not shown
Consider B1, for which the Kd with Peptide-73 is 831 nM; with Peptide-78, 141 nM; in the experiment with Peptide-79, 44.7 nM; with Peptide-72 it was 926 nM; with Peptide-84, 110 nM; with Peptide-39, 2020 nM. In the experiment with Peptide-86, this molecule registered a Kd of 40.2 nM. The dissociation rate constant (koff) with Peptide-73 amounted to 0.028 s⁻¹; in the experiment with Peptide-78, 0.0191 s⁻¹; with Peptide-79 it was 0.0118 s⁻¹; with Peptide-72, 0.0239 s⁻¹; with Peptide-84, 0.0138 s⁻¹; with Peptide-39, 0.0202 s⁻¹. In the experiment with Peptide-86, this molecule gave a koff of 0.0115 s⁻¹. The kon in the experiment with Peptide-73 worked out at 33700 M⁻¹ s⁻¹; in the experiment with Peptide-78, 135000 M⁻¹ s⁻¹; with Peptide-79, 264000 M⁻¹ s⁻¹; in the experiment with Peptide-72, 25800 M⁻¹ s⁻¹; with Peptide-84, 125000 M⁻¹ s⁻¹; in the experiment with Peptide-39 it was 10000 M⁻¹ s⁻¹. Moreover, the kon in the experiment with Peptide-86 is 286000 M⁻¹ s⁻¹. In addition, the “t½” value with Peptide-73 is 24 s; with Peptide-78 it was 36 s; with Peptide-79 it was 60 s; with Peptide-72, 30 s; in the experiment with Peptide-84, 48 s; in the experiment with Peptide-39 it was 36 s. Moreover, the “t½” value with Peptide-86 stood at 60 s.

MDWCPRDLWVHCFA (cysteine pairing not given here; also: biotinylated, site not given here) [Peptide-1] registered an Octet signal with Ab-1 [7] of 2.03. In addition, the t1/2 with Ab-1 [7] worked out at 588 s; in the experiment with Ab-1 [11] it was 930 s. Moreover, in the experiment with Ab-1 [3], the “Octet signal (200 nM peptide)” value is 1.8. Besides, the concentration giving a half-maximal response (EC50) with Ab-1 [4] is 1 nM; in the experiment with Ab-1 [9] it was 4 nM; in experiment [10], 490 nM. Further, the half-inhibitory concentration (IC50) with Ab-1 [5] was 200 nM; in the experiment with Ab-1 [8], 60 nM. Further, in the experiment with Ab-1 [11], the dissociation constant (Kd) was determined as 15.1 nM. In the experiment with Ab-1 [12], the “Octet signal (20 nM peptide)” value came out at 0.509.

Turning to IHLCHWVPWIKCSH [Phage-1664], in experiment [13], the “CD28 scFv signal in presence of CD28” value was 2.51.

One may read the EC50 as the concentration giving half of the maximal effect. A low value points to greater potency. What is called IC50 is the concentration that inhibits the measured activity by half. A high value points to weaker potency. A word on the Kd: it is the concentration at which binding is half-saturated. Higher therefore signals lower affinity. The koff is a measure of how fast the partners let go of each other. A lower koff goes with a long-lived complex. In general, kon refers to the second-order rate constant of association. Read a low kon as slow association. As usually defined, the t½ is the time in which the quantity being followed falls by half. Lower therefore signals fast loss.
